B1: HBV Env 335 (HBV env 335-343) peptide … (peptide)
peptide: WLSLLVPFV
modifications: not checked
B2: HIV Env 49 (HIV env 49-58) peptide … (peptide)
peptide: TVYYGVPVWK
modifications: not checked

What was measured:
[1] = target: purified HLA-A2.1 molecules (human); settings: remark: other sources report otherwise
[2] = target: purified HLA-A11 molecules (human)

Row | Binder | IC50 [1] [nM] | IC50 [2] [nM]
1 | B1 | 5 | –
2 | B2 | – | 4

— patent publication US20030220285A1
